Assay: soluble on expression in E. coli; label from the status in PepcDB or PDB records
With “MAHHHHHHMVRRLEGNPVPTIGIIFMLHAHRTAHLKYYQSMSLFAIENVDVVWGAAGYSILKQTQGAWMALYDEAYVSENKVMPFGYLVQNGVLMPTSDPCNAANTLAGDGSATAKKWGGTSQQKHRYAYEADVVPRRSCIKARTRSADNSGRRVTFCSGDTEFGVF” the “soluble on expression in E. coli” value was “not soluble”.
With “MVPDRREQSKAKERLLEREEALAKHMSEREKRPPPKIDPPPSPKAPEPSKRVLKEKQAPLFVDTAVEGTLPPLSLLDPAEVKQKSYSPESLEAMSRLLEIKLKEFGVEVSVDSVHPGPVITRFEIQPAAGVKVSRISNLAKDLARSLAVISVRVVEVIPGKTTVGIEIPNEDRQMVRFSEVLSSPEYDEHKSTVPLALGHDIGGRPIITDLAKMPHLLVAGTTGSGKSVGVNAMLLSILFKSTPSEARLIMIDPKMLELSIYEGIPHLLCPVVTDMKEAANALRWSVAEMERRYRLMAAMGVRNLAGFNRKVKDAEEAGTPLTDPLFRRESPDDEPPQLSTLPTIVVVVDEFADMMMIVGKKVEELIARIAQKARAAGIHLILATQRPSVDVITGLIKANIPTRIAFQVSSKIDSRTILDQGGAEQLLGHGDMLYLPPGTGLPIRVHGAFVSDDEVHRVVEAWKLRGAPDYIEDILAGVDEGGGGGGSFDGGDGSGEGSEDDPLYDEAVRFVTESRRASISAVQRKLKIGYNRAARMIEAMEMAGVVTPMNTNGSREVIAPAPVRDKLHHHHHH” the “soluble on expression in E. coli” value was “soluble”.
For “DERVFEQELENGLRLFIIPKPGFQKTFVTYTTQFGSLDNQFKPLGQDQFVTVPDGVAHFLEHKLFEKEEEDLFTAFAEDNAQANAFTSFDRTSYLFSATDNIENNIKRLLTMVETPYFTKETVDKEKGIIAEEIKMYQEQPGYKLMFNTLRAMYQRHPIRVDIAGSVESIYDITKDDLYLCYETFYHPSNMVLFVVGDVNPEEICRIVKQHEDARNKVNQPKIER”, the “soluble on expression in E. coli” value was “not soluble”.
For “MSEELLQKFLTSIEQEDGIAEIGKKKKNKSAARRDNVKTILHAASKGQVQLSAEESYIVQKPSTSKGSDYIDDRLASQGFSLIDQARSFKPKDLKKRNLKYMKFQEGRRIDKKKGRILVQAHMQTKQDLKSLRKEKKAIIGVKEPRRLLPGQKKKQKDKSVFSDADFAQVAHVAKRINSMADHSFL”, the “soluble on expression in E. coli” value was “not soluble”.
With “AIPLTLFYKFTYPIIVAFNKSTDLVLKLFGIKQVDEHEEAHTDEEIRMLVEESYKHGLIDKTELTFVDNVFDFSEKTVKEIMVPRTDMKCIFVEDSFDDIVGVTIDEHFTRYPVCEESKDNIIGLIHIKDLYKLKINKEDEKIESIIREIKFVPESMSISELFRMFQKERMQMAIVIDEYGGTFGLVTIEDILEEIVGEIQ” the “soluble on expression in E. coli” value was “not soluble”.
With “MISAAPYRDRVVHHALYNIIVPIFERTFISDSYANRVGFGSHRALRRFTQFSRSSHYVFQADIRKYFPSIDHKILKHLIYRKIKCPDTLWLINTIIDNSNFQEPVINYFPGDNLLAPLERRCGLPIGNLTSQFFANVYLNNFDHFVKEQLQAFKYIRYVDDFALFSDDKAFLETARVIIEEYLTSLRLKIHPIKSQLFETKHGANFVGFRILPNQIRVRSDNLRLGRKRLRQMLRDYDEGKIDAQHLTQSTQSWVAHLKHGDTWQLRQRIFSSSIFDLAMLILEHHHHHH” the “soluble on expression in E. coli” value was “soluble”.
With “MYEWLNALPKAELHLHLEGTLEPELLFALAERNRIALPWNDVETLRKAYAFNNLQEFLDLYYAGADVLRTEQDFYDLTWAYLQKCKAQNVVHVEPFFDPQTHTDRGIPFEVVLAGIRAALRDGEKLLGIRHGLILSFLRHLSEEQAQKTLDQALPFRDAFIAVGLDSSEVGHPPSKFQRVFDRARSEGFLTVAHAGEEGPPEYIWEALDLLKVERIDHGVRAFEDERLMRRLIDEQIPLTVCPLSNTKLCVFDDMSQHTILDMLERGVKVTVNSDDPAYFGGYVTENFHALQQSLGMTEEQARRLAQNSLDARLVK” the “soluble on expression in E. coli” value was “not soluble”.
For “MCPCPHSQAQGETDGEAEWHNAALDFTHAMSYGDYLKLDKVLDAQFPLSPDHNEMLFIIQHQTSELWMKLMLHELRAAREHVKSGKLGPALKMLARVSRIFDQLVHAWAVLATMTPTEYNTIRPYLGQSSGFQSYQYREIEFILGNKNATLLKPHAHRAELLAALEQALHTPSLYDEAIRLMAAQGLPVSQERLARDAAAGTCYEASVEAAWRQVYQAPERYWDLYQLAEKLIDLEDSFRQWRFRHVTTVERIIGFKPGTGGTEGVGYLRSMLDTILFPELWRLRSNL”, the “soluble on expression in E. coli” value was “not soluble”.
In the case of “MGSDKIHHHHHHMDDLMGYVIGETSNTELNFLAKHMPEIGSYVSINYCDLEILGMVESVNQGCKIFEDVYNVKDFEKLKDFENNDSYYTIGKIKILGDVKNMQIPRIPPKPGTEVYDASEKILGEIFSKGTIEIGNLISADSKVKLDVNKLCSRHLAILAITGMGKSNTVSVLLEELNNIHATVLVFDMHREYVEIEAKNSTIRRNIIRPKINVYNMSYDALMSLAGVDPQATVQRAMGRRAMKKIKESKKEVDFNTVDEYINSIINELNYYMGMDEFKSKVDSILTLIMRFEDLMTFKDKITAINYNPIQDIKENYVNIVDISELDESSTDLIISYFTGEILKDRKKVLWDTKVAKPIFIIYEEAHLIVPQNRPTKSKIPISKIAREGRKFGVGICLVSQRPKTLDQESLSQCNNFIISKLIEPSDQKHVQHASENLSEDLLNQLPGLNVGEAVIIGPCLKIPAMVKIKRFEGEYGGEDVKFDELWTTEKEKNIPEFIESNELFNDDL”, the “soluble on expression in E. coli” value is reported as “not soluble”.
For “GSHMGSLDETTYERLAEETLDSLAEFFEDLADKPYTFEDYDVSFGSGVLTVKLGGDLGTYVINKQTPNKQIWLSSPSSGPKRYDWTGKNWVYSHDGVSLHELLAAELTKALKTKLDLSSLAYSGKDA”, the “soluble on expression in E. coli” value was “soluble”.
With “MGSDKIHHHHHHMAKLLPYQKRWINDRAPVKFWEKSRRIGASWGDAADSALVASKVKDDGGMSTYYLSYNKDMTRQYVADVAGWAKKFNLVAGELEEIVLADEDKDVTIYQVRFASGHVVQGLSSNPSNLRSKQGRVRIDEAAFVEDLGELLKAAIALTMWGGDVAVISTHNGEDSEFNQYIQDIRAGKREYSLHRTDLDDALAEGLYKAICSAKGLTWSVEAEIRWRQKLIADYGDGADEELFCVPSRSSGNWLSRNLIEPCMSAEIPVLRWSPPTANFVDWPLDRAYREVQDWCEGELRPLLDKLHREYVGCRHFFGEDFGRSGDLTVDVPLLELENLSLVTPFLLELRNAPYRTQEQMLAYFVDRLPRFSGGALDARGNGQALAEYARQRYGPELIQEVMLSQGWYREHMPPLKARLEDRTILLPKDAGVLDDLRGIKVFKGIARPPEASIKGKDGQRHCDSAVALALALYACNSIEAGEEWACATAGGGMARRMTHGY” the “soluble on expression in E. coli” value was “not soluble”.
For “MGSDKIHHHHHHMVAMQSYPYVITVSSEKGGVGKTTLATNLAIYLKALDENLPVSIFSFDNHFTVDRMFEIRGQRTTGTVADLLLETPGRDLIHTGQYGVGYIPSSPNLSDLKGTVKTPMMLARLLALSRIPGVVVIDTRPDLDILTQNALFAADRAIIPVKDMPSLENCRNIFALFEQRGLDRKSLSLIPCLVDERIKFDGPFSDQKTLLKAYAINRGYRCFETYISKSPKVESLNTNPDGKIYPILTHAKWTEVHGQFAQLAQTIITEFRATAEPRAFLFHQWLQSEEVRKKEAFFARLSGIKSECLLCGRPVSGKDSDRVSFYFEVSDGSAAGFFEEECFFRLLMTNVYNLDINLADDDPTLQIMRDAARESAFVFRPVTNGSGTTVDFHRFGLDGVHLLKKAYPLREFEGGMLTREKSRLFSLLSETFGNRLDASPDSFLLVHPVHQEKPEAILQEECYRGFARLRQRIAQQVLPPN”, the “soluble on expression in E. coli” value was “not soluble”.
With “KKSPSAGSGSNGGNKKISQEEGEDNGGEDNKKLRGALSSAILSEKPNVKWEDVAGLEGAKEALKEAVILPVKFPHLFKGNRKPTSGILLYGPPGTGKSYLAKAVATEANSTFFSVSSSDLVSKWMGESEKLVKQLFAMARENKPSIIFIDQVDALTGTRGEGESEASRRIKTELLVQMNGVGNDSQGVLVLGATNIPWQLDSAIRRRFERRIYIPLPDLAARTTMFEINVGDTPSVLTKEDYRTLGAMTEGYSGSDIAVVVKDALMQPIRKIQSATHFKDVSTEDDETRKLTPSSPGDDGAIEMSWTDIEADELKEPDLTIKDFLKAIKSTRPTVNEDDLLKQEQFTRDFGQEGN” the “soluble on expression in E. coli” value was “soluble”.
With “MGSDKIHHHHHHMLNSIMEDKKELLKSLLRQIHEGRDVSELKEQFKDVLASISPLEIPLIEQELVKEGISTREIAKMCDIHVELFRESVEGAFSVEDIPEGHPLHTLFMENREIVKDAEMLALLANTLEREMKGEILEEMESVVAELIKVGHTHYNREEMLIFPYIERRGITAIPNVLWFKHDEIRAALRVLHRLLTTDTGERWEEHIKRVVEKAREVSSAMLDMVFRENNIFYPTLKVLLSEGEWRAIREQEEIIGYYKLKPAEWKSDAKPVHPYEIDTTITAEQLISLPEEVQNLLKGQLLKPDSYEVVREDDLRLDEGYLSQREINAIFKALPFDITFVDSNDRVRFFSGSDRIFARTPSVIGRRVHLCHPPRSVHIVDKILKAFRNGERDFAEFWINMGGRIIHIRYFAVRDEGEYLGTVEVVQDVTEIKRLEGEKRLLGWK” the “soluble on expression in E. coli” value was “not soluble”.
For “MGSDKIHHHHHHMTIPTSYLNHTDAEAARKARATYRDGLVAPTSGIAPGFTQANMIVLPRDWAFDFLLYAQRNPKPCPVLDVSDPGSPTTLLAPGADLRTDLPLYRIWRDGKLAEETADATSAWAERDDLVAFLIGCSFTFETPMVEAGIEIRHMTDKSNVPMYLTNRPCRPAGRLKGNMVVSMRPIPASRVADAATISGRFPAVHGAPVHVGAPEQIGISDLSKPDFGDAVRIEPGEVPVFWACGVTPQAAVMASGVPFAITHAPGHMFITDIPDTAYHA”, the “soluble on expression in E. coli” value was “not soluble”.
With “MKEIIARHKAGEHLGICSVCSAHPLVIESALLFDLNTDNKVLIEATSNQVNQFGGYTGMKPADFRDFVYGIAQEVGFPRERLILGGDHLGPNCWQNEPAAAAMEKSVELIKAYVAAGFSKIHLDASMSCADDPTPLDPMVVARRAAVLCKAAEGTANEEQKCHLTYVIGTEVPVPGGEASTIGSVHVTREVDAARTLETHQIAFRESGLEEALSRVIAIVVQPGVEFDHTQIIHYQPQAAQALSAWIKETPMVYEAHSTDYQTRQAYRALVRDHYAILKVGPALTFALREAIFALAQMENELISPEQRSRVLEVIDEVMLNEPGYWKKYYRPTWSQAMVDIHFSLSDRIRYYWPHPRIRQSVEKLIANLNNVTLPLGLISQFMPVQFERLSEGVLTPTPHNLIIDKIQDVLRAYRFGCTPDVA” the “soluble on expression in E. coli” value was “not soluble”.
In the case of “MSLKPCFGYIRVSTERQGDGASLEAQKDAITGFASQNNLEIVRWFEERETASKTGRPIFGEMMNALVSGAAEGLILHKVDRTARNFSDWSRLHEVAKLGIDVYFAADSLDFGTRGGQLLADIQMALAADYSRNLSQEVKKGIYGRIKNGVYPFRAPLGYLDTGGGNVKAIDPIKAPLVSQVFELYCSGDYSITSLTEEMQRRGLKGVGERPVVRRNIESILRNPFYCGKMLVRGKLYDGAHEPLISTAQYRRVAAIKAQRFVKKSTKHELLFRGLFTCGACGQVLTGERQKAHVYYRCHTPRCGRGAIREDRLEETLREKLARLEISPEDQVTLESDIRAWLNKDGVKDIEKSLRLRISDATARLDRLTDLLVDGAIDKPAYELRKQNVEFEKQQLREELDALERSRAEEKDLKALLALAADLSSLYDAAPPPKKRELIRNCLVAPCVMDGQLVSHPADWLVSLRKSPKTDEKSHSAPQAILEGVRVMHAVVDVEGHHHHHH”, the “soluble on expression in E. coli” value is reported as “soluble”.
In the case of “SMQAARLAKALRELGQTGWYWGSMTVNEAKEKLKEAPEGTFLIRDSSHSDYLLTISVKTSAGPTNLRIEYQDGKFRLDSIICVKSKLKQFDSVVHLIDYYVQMCKDKRTGPEAPRNGTVHLYLTKPLYTSAPSLQHLCRLTINKCTGAIWGLPLPTRLKDYLEEYKFQV”, the “soluble on expression in E. coli” value is reported as “soluble”.
